Patent EP4755401A1, “PHARMACEUTICAL COMPOSITION CONTAINING ANTIBODY-DRUG CONJUGATE OF GLUCOCORTICOID” (Jiangsu Hengrui Pharmaceuticals Co., Ltd., priority 2023, dated 2025)

Tests used:
[1] = Pharmacokinetic test in a mouse model after intratracheal nebulized administration; assay type: in vivo, C57BL6/J mice; conditions: mice, ADC-2 100 µg i.t. once; serum, BALF, lung tissue
Description: Mice received intratracheal (i.t.) nebulized administration. […] Following blood collection, the mice were anesthetized and immobilized. […] Table 4. Administration scheme

[2] = biological target: Biotin-labeled human-derived IL-4Rα protein (SinoBiological, CAT# 10402-H08H-B) (human) (UniProt P24394); assay: SPR, Biacore 8K, biotin-hIL-4Rα captured on SA chip, test protein as analyte
[3] = biological target: T1, human-derived IL-4Rα on expressing cells (human, UniProt P24394 26-825); assay: flow cytometry on TF-1 cells expressing IL-4Rα, anti-His-FITC detection
T1 sequence (looked up): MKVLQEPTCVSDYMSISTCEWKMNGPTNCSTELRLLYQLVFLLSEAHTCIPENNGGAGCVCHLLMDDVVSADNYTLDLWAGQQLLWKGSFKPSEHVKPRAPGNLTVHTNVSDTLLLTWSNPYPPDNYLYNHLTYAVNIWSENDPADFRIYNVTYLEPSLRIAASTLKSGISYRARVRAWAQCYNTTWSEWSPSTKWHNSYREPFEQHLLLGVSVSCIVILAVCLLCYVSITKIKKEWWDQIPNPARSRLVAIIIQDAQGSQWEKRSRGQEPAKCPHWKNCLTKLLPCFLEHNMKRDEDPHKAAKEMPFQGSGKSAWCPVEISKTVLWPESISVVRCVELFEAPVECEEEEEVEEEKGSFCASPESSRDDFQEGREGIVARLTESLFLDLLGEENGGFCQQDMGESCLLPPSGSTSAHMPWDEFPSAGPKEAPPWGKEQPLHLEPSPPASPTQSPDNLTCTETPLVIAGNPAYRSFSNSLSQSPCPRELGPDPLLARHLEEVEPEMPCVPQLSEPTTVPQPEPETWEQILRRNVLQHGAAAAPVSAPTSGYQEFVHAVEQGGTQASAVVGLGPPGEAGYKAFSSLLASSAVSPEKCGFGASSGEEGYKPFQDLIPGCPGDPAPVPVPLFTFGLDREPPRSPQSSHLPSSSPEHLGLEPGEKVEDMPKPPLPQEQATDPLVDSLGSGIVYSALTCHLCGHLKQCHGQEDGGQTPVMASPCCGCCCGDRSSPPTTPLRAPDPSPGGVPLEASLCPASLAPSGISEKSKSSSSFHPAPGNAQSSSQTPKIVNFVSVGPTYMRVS

[4] = biological target: T1, human-derived IL-4Rα on expressing cells; assay: cell-based or functional assay
[5] = biological target: T1, human-derived IL-4Rα on expressing cells; assay: flow cytometry on TF-1 cells expressing IL-4Rα, anti-hFab-FITC detection
[6] = biological target: T2, Biotin-labeled human-derived IL-4Rα protein (SinoBiological, CAT# 10402-H08H-B) (human, UniProt P24394 26-232, biotin-labeled (site not stated)); assay: SPR, Biacore 8K, biotin-hIL-4Rα captured on SA chip, test protein as analyte
T2 construct: Bought reagent, captured on an SA sensor chip; also called hIL-4Rα; human-derived IL-4Rα antigen protein
T2 sequence (looked up): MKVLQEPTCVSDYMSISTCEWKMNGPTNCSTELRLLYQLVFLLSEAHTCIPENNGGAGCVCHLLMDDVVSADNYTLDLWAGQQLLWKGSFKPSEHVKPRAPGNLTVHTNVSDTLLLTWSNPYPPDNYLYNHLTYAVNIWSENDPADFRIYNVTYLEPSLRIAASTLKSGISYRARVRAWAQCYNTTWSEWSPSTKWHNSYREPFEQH

## CCCC1O[C@@H]2C[C@H]3[C@@H]4CCC5=CC(=O)C=C[C@]5(C)[C@H]4[C@@H](O)C[C@]3(C)[C@]2(C(=O)CO)O1 (some centres unmarked) [budesonide]
[1]
  distribution / exposure after intratracheal administration (in words): very low in all tissues

## AZD1402-TAG (designed binder)
[2]
  Kd: 0.0213 nM
  koff: 0.000102 s⁻¹
  kon: 4.77e+06 M⁻¹ s⁻¹
[3]
  EC50: 0.0124 nM

B1: antibody-drug conjugate ADC-2 (Fab, V domains shown)
VH: EVQLVESGGGLVQPGGSLRLSCAASGFTFSDYGMHWVRQAPGKGLEWVAFISSGSSIIYYADIVKGRSTISRDNAKNTLYLQMNSLRAEDTAVYYCTRGNKRGFFDYWGQGTLVTVSS
VL: EIVLTQSPATLSLSPGERATLSCRASSSVPYMYWYQQKPGQAPRLLIYLTSNLASGIPARFSGSGSGTDFTLTISSLEPEDFAVYYCQQWRAYPPMLTFGGGTKVEIKR
modifications: budesonide drug-linker (compound 2, maleimide) conjugated after TCEP reduction of 25G7-Fab; conjugated residues and drug load not stated
[4]
  IC50 values for blocking the IL-4 signaling pathway (nM); HEK-Blue IL-4/IL-13 STAT6-SEAP reporter cells: 0.68 nM
  IC50 values for blocking the IL-13 signaling pathway (nM); HEK-Blue IL-4/IL-13 STAT6-SEAP reporter cells: 10.6 nM

B2: hu25G7 (antibody, human IgG4 S228P, kappa, V domains shown)
VH: EVQLVESGGGLVQPGGSLRLSCAASGFTFSDYGMHWVRQAPGKGLEWVAFISSGSSIIYYADIVKGRSTISRDNAKNTLYLQMNSLRAEDTAVYYCTRGNKRGFFDYWGQGTLVTVSS
VL: EIVLTQSPATLSLSPGERATLSCRASSSVPYMYWYQQKPGQAPRLLIYLTSNLASGIPARFSGSGSGTDFTLTISSLEPEDFAVYYCQQWRAYPPMLTFGGGTKVEIKR
notes: Full-length humanized anti-IL-4R IgG4 antibody
[5]
  EC50: 0.247 nM

B3: 25G7-Fab (Fab, V domains shown)
VH: EVQLVESGGGLVQPGGSLRLSCAASGFTFSDYGMHWVRQAPGKGLEWVAFISSGSSIIYYADIVKGRSTISRDNAKNTLYLQMNSLRAEDTAVYYCTRGNKRGFFDYWGQGTLVTVSS
VL: EIVLTQSPATLSLSPGERATLSCRASSSVPYMYWYQQKPGQAPRLLIYLTSNLASGIPARFSGSGSGTDFTLTISSLEPEDFAVYYCQQWRAYPPMLTFGGGTKVEIKR
notes: also called naked anti-25G7-Fab; naked antibody 25G7-Fab
[6]
  Kd: 0.0439 nM
  koff: 0.000206 s⁻¹
  kon: 4.69e+06 M⁻¹ s⁻¹
[4]
  IC50 values for blocking the IL-4 signaling pathway (nM); HEK-Blue IL-4/IL-13 STAT6-SEAP reporter cells: 0.61 nM
  IC50 values for blocking the IL-13 signaling pathway (nM); HEK-Blue IL-4/IL-13 STAT6-SEAP reporter cells: 14.6 nM
[5]
  EC50: 0.243 nM
